# Values joined by “and” are separate entries in the source; they are usually repeats but may differ in a detail not shown here. Equal values may be shown once.
# Target: feline FcRn (FCN-F82W3, Acrobiosystems) (feline)
# Experiment: SPR Carterra, IgG coupled, pH 6.0
Binder,Kd,koff,kon
"anti-NGF feline IgG1a, Fc variant N389c-R (antibody, part only; not given: anti-NGF variable domains, not shown: another chain or arm of the molecule; small tags and cut ends) Fc: PPEMLGGPSIFIFPPKPKDTLSISRTPEVTCLVVDLGPDDSDVQITWFVDNTQVYTAKTSPREEQFNSTYRVVSVLPILHQDWLKGKEFKCKVNSKSLPSPIERTISKAKGQPHEPQVYVLPPAQEELSRNKVSVTCLIKSFHPPDIAVEWEITGQPEPERNYRTTPPQLDSDGTYFVYSKLSVDRSHWQRGNTYTCSVSHEALHSHHTQKSLTQSPGK",0.188 µM,0.0944 s⁻¹,502000 M⁻¹ s⁻¹
"anti-NGF feline IgG1a, Fc variant S426H (antibody, part only; not given: anti-NGF variable domains, not shown: another chain or arm of the molecule; small tags and cut ends) Fc: PPEMLGGPSIFIFPPKPKDTLSISRTPEVTCLVVDLGPDDSDVQITWFVDNTQVYTAKTSPREEQFNSTYRVVSVLPILHQDWLKGKEFKCKVNSKSLPSPIERTISKAKGQPHEPQVYVLPPAQEELSRNKVSVTCLIKSFHPPDIAVEWEITGQPEPENNYRTTPPQLDSDGTYFVYSKLSVDRSHWQRGNTYTCHVSHEALHSHHTQKSLTQSPGK",0.171 µM,0.0602 s⁻¹,352000 M⁻¹ s⁻¹
"anti-NGF feline IgG1a, Fc variant S428H (antibody, part only; not given: anti-NGF variable domains, light chain, not shown: another chain or arm of the molecule; small tags and cut ends) Fc: PPEMLGGPSIFIFPPKPKDTLSISRTPEVTCLVVDLGPDDSDVQITWFVDNTQVYTAKTSPREEQFNSTYRVVSVLPILHQDWLKGKEFKCKVNSKSLPSPIERTISKAKGQPHEPQVYVLPPAQEELSRNKVSVTCLIKSFHPPDIAVEWEITGQPEPENNYRTTPPQLDSDGTYFVYSKLSVDRSHWQRGNTYTCSVHHEALHSHHTQKSLTQSPGK",0.159 µM,0.0618 s⁻¹,389000 M⁻¹ s⁻¹
"anti-NGF feline IgG1a, Fc variant T286E, S428H (antibody, part only; not given: Anti-NGF variable domains, not shown: another chain or arm of the molecule; small tags and cut ends) Fc: PPEMLGGPSIFIFPPKPKDTLSISRTPEVTCLVVDLGPDDSDVQITWFVDNTQVYEAKTSPREEQFNSTYRVVSVLPILHQDWLKGKEFKCKVNSKSLPSPIERTISKAKGQPHEPQVYVLPPAQEELSRNKVSVTCLIKSFHPPDIAVEWEITGQPEPENNYRTTPPQLDSDGTYFVYSKLSVDRSHWQRGNTYTCSVHHEALHSHHTQKSLTQSPGK",0.0473 µM,0.0283 s⁻¹,598000 M⁻¹ s⁻¹
"anti-NGF feline IgG1a, Fc variant R334D, S428R (antibody, part only; not given: anti-NGF variable domains, light chain, not shown: another chain or arm of the molecule; small tags and cut ends) Fc: PPEMLGGPSIFIFPPKPKDTLSISRTPEVTCLVVDLGPDDSDVQITWFVDNTQVYTAKTSPREEQFNSTYRVVSVLPILHQDWLKGKEFKCKVNSKSLPSPIEDTISKAKGQPHEPQVYVLPPAQEELSRNKVSVTCLIKSFHPPDIAVEWEITGQPEPENNYRTTPPQLDSDGTYFVYSKLSVDRSHWQRGNTYTCSVRHEALHSHHTQKSLTQSPGK",0.0817 µM,0.0493 s⁻¹,603000 M⁻¹ s⁻¹
"anti-NGF feline IgG1a, Fc variant R334D, T437L (antibody, part only; not given: anti-NGF variable domains, light chain, not shown: another chain or arm of the molecule; small tags and cut ends) Fc: PPEMLGGPSIFIFPPKPKDTLSISRTPEVTCLVVDLGPDDSDVQITWFVDNTQVYTAKTSPREEQFNSTYRVVSVLPILHQDWLKGKEFKCKVNSKSLPSPIEDTISKAKGQPHEPQVYVLPPAQEELSRNKVSVTCLIKSFHPPDIAVEWEITGQPEPENNYRTTPPQLDSDGTYFVYSKLSVDRSHWQRGNTYTCSVSHEALHSHHLQKSLTQSPGK",0.0957 µM,0.0437 s⁻¹,457000 M⁻¹ s⁻¹
"anti-NGF feline IgG1a, Fc variant R334D, R301L (antibody, part only; not given: anti-NGF variable domains, light chain, not shown: another chain or arm of the molecule; small tags and cut ends) Fc: PPEMLGGPSIFIFPPKPKDTLSISRTPEVTCLVVDLGPDDSDVQITWFVDNTQVYTAKTSPREEQFNSTYLVVSVLPILHQDWLKGKEFKCKVNSKSLPSPIEDTISKAKGQPHEPQVYVLPPAQEELSRNKVSVTCLIKSFHPPDIAVEWEITGQPEPENNYRTTPPQLDSDGTYFVYSKLSVDRSHWQRGNTYTCSVSHEALHSHHTQKSLTQSPGK",0.0907 µM,0.0417 s⁻¹,460000 M⁻¹ s⁻¹
"anti-NGF feline IgG1a, Fc variant S426L, T289H (antibody, part only; not given: Anti-NGF variable domains, not shown: another chain or arm of the molecule; small tags and cut ends) Fc: PPEMLGGPSIFIFPPKPKDTLSISRTPEVTCLVVDLGPDDSDVQITWFVDNTQVYTAKHSPREEQFNSTYRVVSVLPILHQDWLKGKEFKCKVNSKSLPSPIERTISKAKGQPHEPQVYVLPPAQEELSRNKVSVTCLIKSFHPPDIAVEWEITGQPEPENNYRTTPPQLDSDGTYFVYSKLSVDRSHWQRGNTYTCLVSHEALHSHHTQKSLTQSPGK",0.115 µM,0.0622 s⁻¹,542000 M⁻¹ s⁻¹
"anti-NGF feline IgG1a, Fc variant S426L, S428H (antibody, part only; not given: anti-NGF variable domains, light chain, not shown: another chain or arm of the molecule; small tags and cut ends) Fc: PPEMLGGPSIFIFPPKPKDTLSISRTPEVTCLVVDLGPDDSDVQITWFVDNTQVYTAKTSPREEQFNSTYRVVSVLPILHQDWLKGKEFKCKVNSKSLPSPIERTISKAKGQPHEPQVYVLPPAQEELSRNKVSVTCLIKSFHPPDIAVEWEITGQPEPENNYRTTPPQLDSDGTYFVYSKLSVDRSHWQRGNTYTCLVHHEALHSHHTQKSLTQSPGK",0.1 µM,0.0445 s⁻¹,445000 M⁻¹ s⁻¹
"anti-NGF feline IgG1a, Fc variant S428Y, S254R (antibody, part only; not given: Anti-NGF variable domains, not shown: another chain or arm of the molecule; small tags and cut ends) Fc: PPEMLGGPSIFIFPPKPKDTLSIRRTPEVTCLVVDLGPDDSDVQITWFVDNTQVYTAKTSPREEQFNSTYRVVSVLPILHQDWLKGKEFKCKVNSKSLPSPIERTISKAKGQPHEPQVYVLPPAQEELSRNKVSVTCLIKSFHPPDIAVEWEITGQPEPENNYRTTPPQLDSDGTYFVYSKLSVDRSHWQRGNTYTCSVYHEALHSHHTQKSLTQSPGK",0.0481 µM,0.0265 s⁻¹,552000 M⁻¹ s⁻¹
"anti-NGF feline IgG1a, Fc variant S428H, T289H (antibody, part only; not given: anti-NGF variable domains, light chain, not shown: another chain or arm of the molecule; small tags and cut ends) Fc: PPEMLGGPSIFIFPPKPKDTLSISRTPEVTCLVVDLGPDDSDVQITWFVDNTQVYTAKHSPREEQFNSTYRVVSVLPILHQDWLKGKEFKCKVNSKSLPSPIERTISKAKGQPHEPQVYVLPPAQEELSRNKVSVTCLIKSFHPPDIAVEWEITGQPEPENNYRTTPPQLDSDGTYFVYSKLSVDRSHWQRGNTYTCSVHHEALHSHHTQKSLTQSPGK",0.149 µM,0.0526 s⁻¹,352000 M⁻¹ s⁻¹
"anti-NGF feline IgG1a, Fc variant S252Y (antibody, part only; not given: Anti-NGF variable domains, not shown: another chain or arm of the molecule; small tags and cut ends) Fc: PPEMLGGPSIFIFPPKPKDTLYISRTPEVTCLVVDLGPDDSDVQITWFVDNTQVYTAKTSPREEQFNSTYRVVSVLPILHQDWLKGKEFKCKVNSKSLPSPIERTISKAKGQPHEPQVYVLPPAQEELSRNKVSVTCLIKSFHPPDIAVEWEITGQPEPENNYRTTPPQLDSDGTYFVYSKLSVDRSHWQRGNTYTCSVSHEALHSHHTQKSLTQSPGK",0.0098 µM,0.0095 s⁻¹,974000 M⁻¹ s⁻¹
"anti-NGF feline IgG1a, Fc variant S252Y, Q311R (antibody, part only; not given: anti-NGF variable domains, not shown: another chain or arm of the molecule; small tags and cut ends) Fc: PPEMLGGPSIFIFPPKPKDTLYISRTPEVTCLVVDLGPDDSDVQITWFVDNTQVYTAKTSPREEQFNSTYRVVSVLPILHRDWLKGKEFKCKVNSKSLPSPIERTISKAKGQPHEPQVYVLPPAQEELSRNKVSVTCLIKSFHPPDIAVEWEITGQPEPENNYRTTPPQLDSDGTYFVYSKLSVDRSHWQRGNTYTCSVSHEALHSHHTQKSLTQSPGK",0.0069 µM,0.0064 s⁻¹,926000 M⁻¹ s⁻¹
"anti-NGF feline IgG1a, Fc variant S252Y, Q311L (antibody, part only; not given: anti-NGF variable domains, not shown: another chain or arm of the molecule; small tags and cut ends) Fc: PPEMLGGPSIFIFPPKPKDTLYISRTPEVTCLVVDLGPDDSDVQITWFVDNTQVYTAKTSPREEQFNSTYRVVSVLPILHLDWLKGKEFKCKVNSKSLPSPIERTISKAKGQPHEPQVYVLPPAQEELSRNKVSVTCLIKSFHPPDIAVEWEITGQPEPENNYRTTPPQLDSDGTYFVYSKLSVDRSHWQRGNTYTCSVSHEALHSHHTQKSLTQSPGK",0.007 µM,0.00516 s⁻¹,740000 M⁻¹ s⁻¹
"anti-NGF feline IgG1a, Fc variant S434Y (antibody, part only; not given: Anti-NGF variable domains, not shown: another chain or arm of the molecule; small tags and cut ends) Fc: PPEMLGGPSIFIFPPKPKDTLSISRTPEVTCLVVDLGPDDSDVQITWFVDNTQVYTAKTSPREEQFNSTYRVVSVLPILHQDWLKGKEFKCKVNSKSLPSPIERTISKAKGQPHEPQVYVLPPAQEELSRNKVSVTCLIKSFHPPDIAVEWEITGQPEPENNYRTTPPQLDSDGTYFVYSKLSVDRSHWQRGNTYTCSVSHEALHYHHTQKSLTQSPGK",0.0052 µM,0.00629 s⁻¹,1.22e+06 M⁻¹ s⁻¹
"anti-NGF feline IgG1a, Fc variant S434Y, S254R (antibody, part only; not given: anti-NGF variable domains, light chain, not shown: another chain or arm of the molecule; small tags and cut ends) Fc: PPEMLGGPSIFIFPPKPKDTLSIRRTPEVTCLVVDLGPDDSDVQITWFVDNTQVYTAKTSPREEQFNSTYRVVSVLPILHQDWLKGKEFKCKVNSKSLPSPIERTISKAKGQPHEPQVYVLPPAQEELSRNKVSVTCLIKSFHPPDIAVEWEITGQPEPENNYRTTPPQLDSDGTYFVYSKLSVDRSHWQRGNTYTCSVSHEALHYHHTQKSLTQSPGK",0.0021 µM,0.00568 s⁻¹,2.75e+06 M⁻¹ s⁻¹

# Target: feline FcRn (IgG receptor FcRn large subunit p51 with feline beta-2-microglobulin) (feline)
# Experiment: SPR Biacore 8K, Fc captured by SASA tag on BSA, pH 6.0
Binder,Kd,koff,kon
"feline IgG1a Fc variant S252W (CH2-CH3) with SASA tag (Fc fusion, part only; not given: SASA tag, not shown: another chain or arm of the molecule; small tags and cut ends) Fc: PPEMLGGPSIFIFPPKPKDTLWISRTPEVTCLVVDLGPDDSDVQITWFVDNTQVYTAKTSPREEQFNSTYRVVSVLPILHQDWLKGKEFKCKVNSKSLPSPIERTISKAKGQPHEPQVYVLPPAQEELSRNKVSVTCLIKSFHPPDIAVEWEITGQPEPENNYRTTPPQLDSDGTYFVYSKLSVDRSHWQRGNTYTCSVSHEALHSHHTQKSLTQSPGK",0.0235 µM and 0.0233 µM,0.00538 s⁻¹ and 0.00545 s⁻¹,228000 M⁻¹ s⁻¹ and 234000 M⁻¹ s⁻¹
"feline IgG1a Fc variant S252Y (CH2-CH3) with SASA tag (Fc fusion, part only; not given: SASA tag, not shown: another chain or arm of the molecule; small tags and cut ends) Fc: PPEMLGGPSIFIFPPKPKDTLYISRTPEVTCLVVDLGPDDSDVQITWFVDNTQVYTAKTSPREEQFNSTYRVVSVLPILHQDWLKGKEFKCKVNSKSLPSPIERTISKAKGQPHEPQVYVLPPAQEELSRNKVSVTCLIKSFHPPDIAVEWEITGQPEPENNYRTTPPQLDSDGTYFVYSKLSVDRSHWQRGNTYTCSVSHEALHSHHTQKSLTQSPGK",0.103 µM and 0.102 µM,0.0265 s⁻¹ and 0.0263 s⁻¹,257000 M⁻¹ s⁻¹ and 258000 M⁻¹ s⁻¹
"feline IgG1a Fc variant S252F (CH2-CH3) with SASA tag (Fc fusion, part only; not given: SASA tag, not shown: another chain or arm of the molecule; small tags and cut ends) Fc: PPEMLGGPSIFIFPPKPKDTLFISRTPEVTCLVVDLGPDDSDVQITWFVDNTQVYTAKTSPREEQFNSTYRVVSVLPILHQDWLKGKEFKCKVNSKSLPSPIERTISKAKGQPHEPQVYVLPPAQEELSRNKVSVTCLIKSFHPPDIAVEWEITGQPEPENNYRTTPPQLDSDGTYFVYSKLSVDRSHWQRGNTYTCSVSHEALHSHHTQKSLTQSPGK",0.47 µM and 0.492 µM,0.0957 s⁻¹ and 0.101 s⁻¹,203000 M⁻¹ s⁻¹ and 205000 M⁻¹ s⁻¹
"feline IgG1a Fc variant S428L (CH2-CH3) with SASA tag (Fc fusion, part only; not given: SASA tag, not shown: another chain or arm of the molecule; small tags and cut ends) Fc: PPEMLGGPSIFIFPPKPKDTLSISRTPEVTCLVVDLGPDDSDVQITWFVDNTQVYTAKTSPREEQFNSTYRVVSVLPILHQDWLKGKEFKCKVNSKSLPSPIERTISKAKGQPHEPQVYVLPPAQEELSRNKVSVTCLIKSFHPPDIAVEWEITGQPEPENNYRTTPPQLDSDGTYFVYSKLSVDRSHWQRGNTYTCSVLHEALHSHHTQKSLTQSPGK",0.485 µM and 0.763 µM,0.0788 s⁻¹ and 0.0803 s⁻¹,162000 M⁻¹ s⁻¹ and 105000 M⁻¹ s⁻¹

# Source: US20250304650A1
